Data taken from the RNAGym collection of RNA variant scans (doi:10.1093/molbev/msab373).

B1: Azoarcus group I ribozyme (parent)
chain: GUGCCUUGCGCCGGGAAACCACGCAAGGGAUGGUGUCAAAUUCGGCGAAACCUAAGCGCCCGCCCGGGCGUAUGGCAACGCCGAGCCAAGCUUCGGCGCCUGCGCCGAUGAAGGUGUAGAGACUAGACGGCACCCACCUAAGGCAAACGCUAUGGUGAAGGCAUAGUCCAGGGAGUGGCGAAAGUCACACAAACCGG

Variants of: B1
Experiment: reverse-splicing fitness (ratio to wild type); higher = more active; in vitro selection; Mg2+ level not given
Procedure, shortened: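 An in vitro group I ribozyme library with randomized positions was T7-transcribed and gel-purified. In triplicate, 10 pmol RNA in EPPS pH 7.5 was reacted with 50 pmoles of a 30-nt RNA substrate for 1 h at 37 °C across several added MgCl2 levels (1–48 mM), then stopped with EDTA. Products were reverse transcribed from a substrate-complementary primer, PCR-amplified and sequenced (HiSeq 4000). Fitness is a variant's read proportion after selection over that before, normalised to wild type.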

Variant | reverse-splicing fitness
GUGCCUUGCGCCGGGAAACCACGCAAGGGAUGGUGUCAAAUUCGGCGAAACCUAAGCGCCCGCCCGGGCGUAUGGCAACGCAGAGCCAAGCUUCGGCGCCUGCGCCGAUGUAGGUGUAGCGACUAGACGGCACCCACCUAAGGCGAACGAUAUGGUGAAGGCAUAGUCAAGGGAGCGGCGAAAGUCACACAAACCGG [C82A A111U A120C A145G C150A C169A U176C] | 0.0279
GUGCCUUGCGCCGGGAAACCACGCAAGGGAUGGUGUCAAAUUCGGCGAAACCUAAGCGCCCGCCCGGGCGUAUGGCAACGCAGAGCCAAGCUUCGGCGCCUGCGCCGAUGUAGGUGUAGCGACUAGACGGCACCCACCUAAGGCCAACGCUAUGGUGAAGGCAUAGUCGAGGGAGAGGCGAAAGUCACACAAACCGG [C82A A111U A120C A145C C169G U176A] | 0.0334
GUGCCUUGCGCCGGGAAACCACGCAAGGGAUGGUGUCAAAUUCGGCGAAACCUAAGCGCCCGCCCGGGCGUAUGGCAACGCAGAGCCAAGCUUCGGCGCCUGCGCCGAUGUAGGUGUAGCGACUAGACGGCACCCACCUAAGGCCAACGCUAUGGUGAAGGCAUAGUCGAGGGAGCGGCGAAAGUCACACAAACCGG [C82A A111U A120C A145C C169G U176C] | 0.0325
GUGCCUUGCGCCGGGAAACCACGCAAGGGAUGGUGUCAAAUUCGGCGAAACCUAAGCGCCCGCCCGGGCGUAUGGCAACGCAGAGCCAAGCUUCGGCGCCUGCGCCGAUGUAGGUGUAGCGACUAGACGGCACCCACCUAAGGCCAACGCUAUGGUGAAGGCAUAGUCGAGGGAGGGGCGAAAGUCACACAAACCGG [C82A A111U A120C A145C C169G U176G] | 0.00816
GUGCCUUGCGCCGGGAAACCACGCAAGGGAUGGUGUCAAAUUCGGCGAAACCUAAGCGCCCGCCCGGGCGUAUGGCAACGCAGAGCCAAGCUUCGGCGCCUGCGCCGAUGUAGGUGUAGCGACUAGACGGCACCCACCUAAGGCCAACGUUAUGGUGAAGGCAUAGUCGAGGGAGGGGCGAAAGUCACACAAACCGG [C82A A111U A120C A145C C150U C169G U176G] | 0.00842
GUGCCUUGCGCCGGGAAACCACGCAAGGGAUGGUGUCAAAUUCGGCGAAACCUAAGCGCCCGCCCGGGCGUAUGGCAACGCAGAGCCAAGCUUCGGCGCCUGCGCCGAUGUAGGUGUAGCGACUAGACGGCACCCACCUAAGGCCAACGCUAUGGUGAAGGCAUAGUCAAGGGAGCGGCGAAAGUCACACAAACCGG [C82A A111U A120C A145C C169A U176C] | 0.0175
GUGCCUUGCGCCGGGAAACCACGCAAGGGAUGGUGUCAAAUUCGGCGAAACCUAAGCGCCCGCCCGGGCGUAUGGCAACGCAGAGCCAAGCUUCGGCGCCUGCGCCGAUGUAGGUGUAGCGACUAGACGGCACCCACCUAAGGCCAACGCUAUGGUGAAGGCAUAGUCAAGGGAGGGGCGAAAGUCACACAAACCGG [C82A A111U A120C A145C C169A U176G] | 0.00573
GUGCCUUGCGCCGGGAAACCACGCAAGGGAUGGUGUCAAAUUCGGCGAAACCUAAGCGCCCGCCCGGGCGUAUGGCAACGCAGAGCCAAGCUUCGGCGCCUGCGCCGAUGUAGGUGUAGCGACUAGACGGCACCCACCUAAGGCCAACGCUAUGGUGAAGGCAUAGUCAAGGGAGAGGCGAAAGUCACACAAACCGG [C82A A111U A120C A145C C169A U176A] | 0.0167
GUGCCUUGCGCCGGGAAACCACGCAAGGGAUGGUGUCAAAUUCGGCGAAACCUAAGCGCCCGCCCGGGCGUAUGGCAACGCAGAGCCAAGCUUCGGCGCCUGCGCCGAUGUAGGUGUAGCGACUAGACGGCACCCACCUAAGGCGAACGCUAUGGUGAAGGCAUAGUCCAGGGAGUGGCGAAAGUCACACAAACCGG [C82A A111U A120C A145G] | 0.0269
GUGCCUUGCGCCGGGAAACCACGCAAGGGAUGGUGUCAAAUUCGGCGAAACCUAAGCGCCCGCCCGGGCGUAUGGCAACGCAGAGCCAAGCUUCGGCGCCUGCGCCGAUGUAGGUGUAGCGACUAGACGGCACCCACCUAAGGCCAACGUUAUGGUGAAGGCAUAGUCUAGGGAGUGGCGAAAGUCACACAAACCGG [C82A A111U A120C A145C C150U C169U] | 0.0105
GUGCCUUGCGCCGGGAAACCACGCAAGGGAUGGUGUCAAAUUCGGCGAAACCUAAGCGCCCGCCCGGGCGUAUGGCAACGCAGAGCCAAGCUUCGGCGCCUGCGCCGAUGUAGGUGUAGCGACUAGACGGCACCCACCUAAGGCCAACGUUAUGGUGAAGGCAUAGUCUAGGGAGAGGCGAAAGUCACACAAACCGG [C82A A111U A120C A145C C150U C169U U176A] | 0.0144
GUGCCUUGCGCCGGGAAACCACGCAAGGGAUGGUGUCAAAUUCGGCGAAACCUAAGCGCCCGCCCGGGCGUAUGGCAACGCAGAGCCAAGCUUCGGCGCCUGCGCCGAUGUAGGUGUAGCGACUAGACGGCACCCACCUAAGGCCAACGUUAUGGUGAAGGCAUAGUCUAGGGAGCGGCGAAAGUCACACAAACCGG [C82A A111U A120C A145C C150U C169U U176C] | 0.0133
GUGCCUUGCGCCGGGAAACCACGCAAGGGAUGGUGUCAAAUUCGGCGAAACCUAAGCGCCCGCCCGGGCGUAUGGCAACGCAGAGCCAAGCUUCGGCGCCUGCGCCGAUGUAGGUGUAGCGACUAGACGGCACCCACCUAAGGCCAACGUUAUGGUGAAGGCAUAGUCUAGGGAGGGGCGAAAGUCACACAAACCGG [C82A A111U A120C A145C C150U C169U U176G] | 0.00618
GUGCCUUGCGCCGGGAAACCACGCAAGGGAUGGUGUCAAAUUCGGCGAAACCUAAGCGCCCGCCCGGGCGUAUGGCAACGCAGAGCCAAGCUUCGGCGCCUGCGCCGAUGUAGGUGUAGCGACUAGACGGCACCCACCUAAGGCGAACGAUAUGGUGAAGGCAUAGUCAAGGGAGUGGCGAAAGUCACACAAACCGG [C82A A111U A120C A145G C150A C169A] | 0.0122
GUGCCUUGCGCCGGGAAACCACGCAAGGGAUGGUGUCAAAUUCGGCGAAACCUAAGCGCCCGCCCGGGCGUAUGGCAACGCAGAGCCAAGCUUCGGCGCCUGCGCCGAUGUAGGUGUAGCGACUAGACGGCACCCACCUAAGGCGAACGAUAUGGUGAAGGCAUAGUCGAGGGAGUGGCGAAAGUCACACAAACCGG [C82A A111U A120C A145G C150A C169G] | 0.00972
